Test results reported in publication PMC8854993, “Acetylation at Lysine 86 of Escherichia coli HUβ Modulates the DNA-Binding Capability of the Protein” (Frontiers in Microbiology, 2021).

T1: HUβ (Escherichia coli BL21(DE3), UniProt P0ACF4 1-90)
T1 sequence: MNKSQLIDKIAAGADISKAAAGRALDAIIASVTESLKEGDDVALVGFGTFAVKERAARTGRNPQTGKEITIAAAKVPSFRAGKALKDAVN

B1: Escherichia coli HUα (natural protein, E. coli, UniProt P0ACF0 1-90, looked up)
chain: MNKTQLIDVIAEKAELSKTQAKAALESTLAAITESLKEGDAVQLVGFGTFKVNHRAERTGRNPQTGKEIKIAAANVPAFVSGKALKDAVK
notes: hupA amplified from chromosomal DNA of E. coli BL21(DE3) with primers from the start codon to the last codon, followed by His6; No tag cleavage is described; the printed mass (10,357.5 Da observed, 10,357.8 Da calculated) appears to fit the whole protein with His6; also called HUα2 (homodimer); hupA-His6; source: E. coli BL21-AI, purified (Ni-NTA, cation exchange RESOURCE S)

Experiments:
[1] = molecular target: T1, HUβ; experiment: EMSA; homodimer; 30 mM Tris pH 7.5, 100 mM NaCl, 0.02% Tween20, 0.5 mg/ml BSA; 30-bp DNA 1 µM, 18°C 10 min, 10% PAGE in TBE; long DNA 250 ng in 15 µL, 37°C 1 h, 0.5% agarose in; conditions: protein: recombinant; tags: C-terminal 6xHis; chain copies: 2; three strands; 2-nt gap in bottom strand between S16 and S17; blunt outer ends
[2] = molecular target: the molecule itself; experiment: SEC; analytical SEC, Agilent Bio SEC-3 column in PBS (10 mM NaPO pH 7.4, 154 mM NaCl), 0.6 mg/mL protein, 20 uL injected, 0.35 mL/min, detection at 214 nm, molecular weight estimated from a standard curve; heterodimers made by mixing purified homodimers 1:1 on ice for 5 min
[3] = molecular target: B1; experiment: as above; conditions: both partners purified

binding result [3]	Binder	binding result [1]	stoichiometry N [2]
	30-bp duplex with 2-nt gap (dsDNA, 2-nt gap in bottom strand) DNA 1: CCAACTTCCCTAACCCAGCTGCGATCCGTA DNA 2: TACGGATCGCAGC DNA 3: GGTTAGGGAAGTTGG	binds	
binds	Escherichia coli HUβ (natural protein, E. coli, UniProt P0ACF4 1-90, looked up, hupB amplified from chromosomal DNA of E. coli BL21(DE3) with primers from the start codon to the last codon, followed by an XhoI site and His6; The reverse primer carries CTCGAG (XhoI) between hupB and the His codons, so Leu-Glu probably stands before His6; theoretical mass printed 10,290.7 Da; No tag cleavage is described; also called HUβ2 (homodimer); hupB-His6; source: E. coli BL21-AI, …) MNKSQLIDKIAAGADISKAAAGRALDAIIASVTESLKEGDDVALVGFGTFAVKERAARTGRNPQTGKEITIAAAKVPSFRAGKALKDAVN		2
binds	Escherichia coli HUβ acetylated at Lys86 (natural protein, E. coli, UniProt P0ACF4 1-90, looked up, acetyl-lysine at 86, from pBAD hupB(K86TAG)-His6, amber codon at Lys86 read as acetyl lysine; Same construct as m2 but with acetyl-lysine at 86; theoretical mass printed 10,332.7 Da; also called HUβ(K86ac); HUβ(K86ac)2 (homodimer)) MNKSQLIDKIAAGADISKAAAGRALDAIIASVTESLKEGDDVALVGFGTFAVKERAARTGRNPQTGKEITIAAAKVPSFRAGKALKDAVN		2
binds	Escherichia coli HUβ acetylated at Lys67 (natural protein, E. coli, UniProt P0ACF4 1-90, looked up, acetyl-lysine at 67, from pBAD hupB(K67TAG)-His6, amber codon at Lys67 read as acetyl lysine; Same construct as m2 but with acetyl-lysine at 67; theoretical mass printed 10,332.7 Da; also called HUβ(K67ac); HUβ(K67ac)2 (homodimer)) MNKSQLIDKIAAGADISKAAAGRALDAIIASVTESLKEGDDVALVGFGTFAVKERAARTGRNPQTGKEITIAAAKVPSFRAGKALKDAVN		2
	B1		2
